For the assay, the target named is T1, OmpG, bacterial porin (Escherichia coli K12) (Escherichia coli K12, UniProt P76045 22-301, limits assumed).
T1 sequence (looked up): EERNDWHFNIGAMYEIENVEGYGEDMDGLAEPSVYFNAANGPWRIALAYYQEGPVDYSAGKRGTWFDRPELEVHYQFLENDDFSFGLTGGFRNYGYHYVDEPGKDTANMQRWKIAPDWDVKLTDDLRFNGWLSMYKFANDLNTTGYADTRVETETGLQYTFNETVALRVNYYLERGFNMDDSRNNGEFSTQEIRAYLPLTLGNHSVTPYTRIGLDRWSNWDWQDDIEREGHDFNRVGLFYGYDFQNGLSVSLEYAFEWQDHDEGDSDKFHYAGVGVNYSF
Description: circular dichroism of peptide-stabilized protein.

Non-standard residues stand in square brackets, D forms with d. amino hexenoic acid = amino hexenoic acid, a vinyl (alkene)-bearing residue; Gly(octyl) = CCCCCCCC[C@H](N)C(=O)O; NMeL = CN[C@@H](CC(C)C)C(=O)O

B1: vinyl (alkene mid-) functionalized β-sheet peptide, structure (8): acetyl-(octyl)Gly-Ser-Leu-Ser-amino hexenoic acid-Leu-Asp-(octyl)Gly-Asp-Gly-Leu-NH2 (peptide)
peptide: Ac-[Gly(octyl)]SLS[amino hexenoic acid][NMeL]D[Gly(octyl)]DGL-NH2
notes: Synthetic 11-residue peptide; also called Vinyl-BP1
For the molecule B1, the binding result was “binds”.

The values are drawn from US20170259217A1 (GOVERNORS OF THE UNIVERSITY OF ALBERTA, published 2017).
